Assay [1] has as its target T1, Mouse GFRAL protein (Biacore analyte) (mouse, UniProt Q6SJE0 20-349, limits assumed).
T1 construct: also called mGFRAL
T1 sequence (looked up): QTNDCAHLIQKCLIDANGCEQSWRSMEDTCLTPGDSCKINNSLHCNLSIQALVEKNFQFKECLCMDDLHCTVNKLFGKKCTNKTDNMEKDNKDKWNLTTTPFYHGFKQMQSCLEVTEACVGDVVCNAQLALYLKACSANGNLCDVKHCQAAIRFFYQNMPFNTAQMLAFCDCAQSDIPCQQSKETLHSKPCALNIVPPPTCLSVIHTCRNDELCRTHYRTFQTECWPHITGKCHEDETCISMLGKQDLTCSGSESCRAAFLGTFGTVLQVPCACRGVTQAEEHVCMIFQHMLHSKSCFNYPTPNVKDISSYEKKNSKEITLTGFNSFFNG
The assay is described as follows: Biacore SPR, antibody captured via anti-human Fc on CM5, GFRAL injected, 25 C. How it is done: (§1) Binding affinity assays were performed for three antibody strains 168A7, 8E10 and 26D7 based on the Biacore affinity assay. The binding affinities of purified antibodies to human or mouse GFRAL were assessed by measuring the equilibrium dissociation constants (KD). The anti-human Fc antibody was immobilized in the flow cell of the CM5 chip according to the instructions of the amino-coupled kit (catalogue number: BR100050, Cytiva). Purified antibodies (˜300 RU) were captured on flow cells 2, 3 and 4 using flow cell 1 as a reference. Human or mouse GFRAL protein (in an HBS-EP buffer) was then injected at a flow rate of 30 μL/min and the binding kinetics were evaluated at 25° C. The results were as follows (FIGS. 1A-1C, Table 4)
A general note: Surface plasmon resonance follows binding to a sensor surface in real time, without labels.

For assay [2], the target named is T2, Human GFRAL protein (Biacore analyte) (human, UniProt Q6UXV0 19-351, limits assumed).
T2 construct: also called hGFRAL
T2 sequence (looked up): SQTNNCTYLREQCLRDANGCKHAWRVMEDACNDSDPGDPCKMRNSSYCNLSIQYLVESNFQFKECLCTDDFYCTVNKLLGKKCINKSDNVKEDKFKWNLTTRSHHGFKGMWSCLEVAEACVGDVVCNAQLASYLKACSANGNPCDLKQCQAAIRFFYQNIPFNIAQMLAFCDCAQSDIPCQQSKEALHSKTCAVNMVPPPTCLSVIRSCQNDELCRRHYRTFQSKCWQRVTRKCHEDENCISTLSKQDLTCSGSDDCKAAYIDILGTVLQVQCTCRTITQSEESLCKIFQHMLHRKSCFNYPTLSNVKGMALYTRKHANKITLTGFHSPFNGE
Described as above. How it is done: as §1

Assay [3] has as its target T3, Mouse GFRAL (mGFRAL) on HEK293 reporter cells with mouse RET (mouse, UniProt Q6SJE0 20-393).
T3 sequence (looked up): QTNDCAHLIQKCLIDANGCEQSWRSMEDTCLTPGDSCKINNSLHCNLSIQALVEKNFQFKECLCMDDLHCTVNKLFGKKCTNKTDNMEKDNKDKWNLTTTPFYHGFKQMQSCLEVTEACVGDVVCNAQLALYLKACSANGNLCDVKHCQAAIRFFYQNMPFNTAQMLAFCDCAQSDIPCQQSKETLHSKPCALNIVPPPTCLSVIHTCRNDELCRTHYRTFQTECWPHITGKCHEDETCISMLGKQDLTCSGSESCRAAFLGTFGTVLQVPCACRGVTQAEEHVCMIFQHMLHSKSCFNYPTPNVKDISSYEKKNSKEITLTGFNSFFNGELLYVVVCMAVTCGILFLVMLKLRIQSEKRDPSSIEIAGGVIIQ
The assay can be described thus: cell-based or functional assay.

Assay [4] deals with T4, Human GFRAL (hGFRAL) on HEK293 reporter cells with human RET (human, UniProt Q6UXV0 19-394).
T4 sequence (looked up): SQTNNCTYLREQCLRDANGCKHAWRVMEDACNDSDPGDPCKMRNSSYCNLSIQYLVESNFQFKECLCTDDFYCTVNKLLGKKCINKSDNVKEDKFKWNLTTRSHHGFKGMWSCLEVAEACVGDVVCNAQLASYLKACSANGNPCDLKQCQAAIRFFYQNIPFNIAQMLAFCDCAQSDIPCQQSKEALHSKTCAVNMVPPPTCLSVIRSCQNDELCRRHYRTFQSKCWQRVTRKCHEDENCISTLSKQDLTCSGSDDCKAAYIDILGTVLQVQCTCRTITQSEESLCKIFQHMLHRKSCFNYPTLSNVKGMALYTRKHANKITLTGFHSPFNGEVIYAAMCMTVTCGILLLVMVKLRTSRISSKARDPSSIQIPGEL
The assay is described as follows: cell-based or functional assay.

The target of assay [5] is T5, Mouse GFRAL-Fc protein (mouse, UniProt Q6SJE0 20-349, limits assumed).
T5 construct: not shown: Fc
T5 sequence (looked up): T1 sequence (looked up)
The assay is described as follows: ELISA, antigen coated on plate, purified antibody titrated, HRP anti-mouse IgG detection. How it is done:
(§2) The ELISA assay had the following protocols. Human GFRAL-His protein, cynomolgus monkey GFRAL-His protein, or mouse GFRAL-Fc protein were coated on 96-well plates, and after blocking the wells with PBS/1% BSA solution, the hybridoma supernatant or purified antibodies were added to the reaction wells. After incubation for 1 hour at room temperature, HRP-labeled anti-mouse IgG (Fab region) antibody was added to the reaction wells to incubate for an additional hour at room temperature. After the substrate and stop solution were added successively, the OD₄₅₀ values were read. The OD₄₅₀ values were used to verify and assess the binding ability of the antibodies to the GFRAL proteins.
On the technique in general: ELISA stands for enzyme-linked immunosorbent assay.

Assay [6] addresses T6, Human GFRAL-His protein (human, UniProt Q6UXV0 19-351).
T6 construct: also called human GFRAL-His fusion protein; not shown: His tag
T6 sequence (looked up): T2 sequence (looked up)
The description is as above. How it is done:
as §2

For assay [7], the target named is Cynomolgus monkey GFRAL-His protein (cynomolgus monkey). The assay is described as above. How it is done:
as §2

The target in assay [8] is T1, Mouse GFRAL protein (Biacore analyte). The assay can be described thus: Biacore SPR, humanized antibody captured via murine anti-human Fc on CM5, GFRAL injected in 2-fold dilutions, 25 C. The protocol: (§3) Specific protocols are as follows.
(§4) The surface of the CM5 chip was activated using 400 mM EDC and 100 mM NHS at a flow rate of 10 μl/min according to the instructions for the amino-coupled kit (Cat. No. BR100050, Cytiva). Then, the murine anti-human Fc antibody was immobilized in the test channel (Fc2) and the reference channel (Fc1) of the CM5 chip. Finally, the chip was blocked with 1 M ethanolamine at a flow rate of 10 μl/min; The humanized antibody (˜300 RU) diluted to 5 μg/ml was then captured on the assay channel (Fc2), and ligand capture were not carried out on the reference channel. Human, mouse or cynomolgus monkey GFRAL proteins (in a HBS-EP buffer) with 2-fold doubling dilutions was subsequently injected at a flow rate of 30 μL/min and the binding kinetics were evaluated at 25° C. The results are as follows (see Table 12)

The target of assay [9] is T2, Human GFRAL protein (Biacore analyte). Described as above. The protocol:
as §3, §4

The target of assay [10] is Cynomolgus monkey GFRAL protein (Biacore analyte) (cynomolgus monkey). The description is as above. The protocol: as §3, §4
Assay [11] has as its target T3, Mouse GFRAL (mGFRAL) on HEK293 reporter …. The assay can be described thus: cell-based or functional assay. This is another data set of the same source.
In assay [12] the target is T4, Human GFRAL (hGFRAL) on HEK293 reporter …. The assay can be described thus: cell-based or functional assay. This is another data set of the same source.

From patent US20240368286A1 (SHANGHAI JMT BIO TECHNOLOGY, published 2024) come the findings set out here.

Read-outs that look alike come from different tables or passages of the source.

B1: 26D7 (antibody, V domains shown)
VH: QIQLVQSGPELKKPGETVKISCKVSGYTFTDYGMNWVKQTPGKDLKWVGWINTYTGEPTYADDFKDRFAFSLEASASTAYLQINNLKNEDTATYFCARRYGYDAGIDCWGQGTTLTVSS
VL: NIVLTQSPPSLAVSLGQRATISCRASESVDSYGNNLMHWYQQKPGQPPKLLIYLASYLESGVPARFSGSGSRTDFTLTIDPVEADDAATYYCQQNNEDPWTFGGGTKLEIK
notes: Murine hybridoma antibody, purified; also called m26D7; M26D7
B1: the off-rate constant (koff) (as a rule, a measure of how fast the partners let go of each other) in [1] was 0.000293 s⁻¹; in assay [2], 9.37e-05 s⁻¹. Binding in [2] was put at a Kd of 15.3 pM. Further, the “IC50 (nM), luciferase reporter gene assay, Mouse GFRAL/mouse RET” value in assay [3] is 0.76 nM. Also, the “IC50 (nM), luciferase reporter gene assay, Human GFRAL/human RET” value in assay [4] was 6.35 nM. Also, the 50% effective concentration (EC50) (usually the concentration that produces a half-maximal response) was 150 pM in [5], 70 pM in assay [6] and 60 pM in assay [7].

B2: 26D7H5bL5a (antibody, V domains shown)
VH: QVQLVQSGAEVKKPGASVKVSCKVSGYTFTDYGMNWVRQAPGQGLEWMGWINTYTGEPTYAQKLQGRVTFTTDTSTSTAYMELRSLRSDDTAVYYCARRYGYDAGIDAWGQGTTVTVSS
VL: DIQMTQSPSSLSASVGDRVTITCRASESVESYGNNLMHWYQQKPGKAPKLLIYLASYLESGVPSRFSGSGSGTDFTLTISSLQPEDFATYYCQQNNESPWTFGGGTKLEIK
notes: Humanized; also called humanized anti-GFRAL antibody 26D7H5bL5a
For B2, the dissociation rate constant (koff) in assay [8] came to 0.000314 s⁻¹; in assay [9], 0.000268 s⁻¹; in [10], 0.000231 s⁻¹. For the same molecule, the equilibrium dissociation constant (Kd) – broadly, the free concentration of one partner at which half of the binding sites on the other are occupied at equilibrium, for simple one-to-one binding – is 119 pM in [9] and 246 pM in [10]. The “IC50 (nM), luciferase reporter gene assay, Mouse GFRAL/mouse RET” value in [11] came to 0.9 nM. In addition, in assay [12], the “IC50 (nM), luciferase reporter gene assay, Human GFRAL/human RET” value was found to be 11.8 nM.
